The numbers were not newly measured in paper PMC4465285, which cites them from elsewhere.

In data set [1] the target is F-actin (Oryctolagus cuniculus) (UniProt P68135).
In data set [2] the target is F-actin (Saccharomyces cerevisiae) (UniProt P60010). Put plainly: fluorescence titration and cosedimentation.

What is called Kd is a measure of binding affinity in units of concentration. As for Drebrin 1-300 (from UniProt Q16643), in data set [1], the Kd was 200 nM.

Consider Cofilin-1 (from UniProt P23528), for which the Kd in data set [2] was 16 nM.
